The text below walks through data of publication PMC5458757 (Genes & Development, 2017).

By Kd is commonly meant the free concentration of one partner at which half of the binding sites on the other are occupied at equilibrium, for simple one-to-one binding. Low values mean a tighter complex, high ones a looser complex.

The target in assay [1] is T1, human SIAH1-SBD (91–282) (human, UniProt Q8IUQ4-1 91-282).
T1 sequence (looked up): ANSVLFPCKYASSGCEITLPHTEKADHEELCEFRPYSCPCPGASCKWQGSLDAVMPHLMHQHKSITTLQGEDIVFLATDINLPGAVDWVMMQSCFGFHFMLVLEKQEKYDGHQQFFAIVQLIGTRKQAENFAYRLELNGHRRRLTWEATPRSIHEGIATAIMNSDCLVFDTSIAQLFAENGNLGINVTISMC
Description: pull-down.

The target of assay [2] is T1, human SIAH1-SBD (91–282). Put plainly: ITC. For orientation: Isothermal titration calorimetry measures the heat released or taken up as one component is titrated into another.

B1: GST-tagged AXIN1 (353–436) (domain or fragment, human, UniProt O15169-1 353-436, looked up)
chain: RREMQESVQVNGRVPLPHIPRTYRVPKEVRVEPQKFAEELIHRLEAVQRTREAEEKLEERLKRVRMEEEGEDGDPSSGPPGPCH
For B1, in assay [1], the binding result is “binds”.

B2: 20-residue human AXIN1 peptide (residues 375–394) (peptide, UniProt O15169-1 375-394, looked up)
peptide: YRVPKEVRVEPQKFAEELIH
In turn, B2 displayed a Kd in assay [2] of 5.6 µM.
